Results: patent US20090202520A1 (PROMEDIOR, published 2009)
Each block holds one binder with its values, some of them ahead of it.

B4: C-reactive protein (CRP) (ligand, human, UniProt P02741 19-224, looked up)
chain: QTDMSRKAFVFPKESDTSYVSLKAPLTKPLKAFTVCLHFYTELSSTRGYSIFSYATKRQDNEILIFWSKDIGYSFTVGGSEILFEVPEVTVAPVHICTSWESASGIVEFWVDGKPRVRKSLKKGYTVGAEASIILGQEQDSFGGNFEGSQSLVGDIGNVNMWDFVLSPDEINTIYLGGPFSPNVLNWRALKYEVQGEVFTKPQLWP
notes: In the SPR assay CRP was captured on PC-KLH immobilised on a CM5 chip; also called hCRP; PTX1

How the values were obtained:
serum amyloid P (SAP) [1] = molecular target: T1, serum amyloid P (SAP) (human, UniProt P02743 20-223); assay: SPR (Biacore X100), SAP on CM5 chip, soluble receptor flowed, single cycle kinetics, KD = Kd/Ka
T1 construct: Pentamer of five non-covalently associated protomers; also called hSAP; human serum amyloid protein P
Text: (§1) Surface plasmon resonance technology detects and quantifies binding and dissociation events between two proteins through a change in mass at the surface of a chip that is detected as a change in surface plasmon resonance. For these studies we used a Biacore X100 instrument.
(§2) SAP was bound to the surface of the test flow cell of a chip and a soluble recombinant form of Fcγ receptor (sFcγR) was flowed across the surface of the chip, representing the contact or binding phase. Buffer was then flowed across the chip surface, representing the dissociation phase. Change in mass at the cell surface with respect to time, detected as a change in surface plasmon resonance units (RUs) with time, was represented by a graph called a sensorgram. Binding of SAP to the CM5 dextran surface of a Biacore CM5 chip was performed in the presence of 10 mM Hepes, 150 mM NaCl, 0.5 mM CaCl₂, pH 7.4 as running buffer. Binding of SAP was stabilized by a very short immobilization using amine coupling (Biacore reagents) which covalently linked a limited representation of amine-group-containing amino acids on SAP to groups on the chip surface activated with 1-ethyl-3-(3-dimethylaminopropyl)carbodiimide and N-hydroxysuccinimide. A negative control flow cell was prepared using the same amine coupling procedure to immobilize human serum albumin to the same level as SAP. […]

serum amyloid P (SAP) [2] = molecular target: T1, serum amyloid P (SAP); assay: SPR (Biacore X100), SAP on CM5 chip, soluble receptor flowed
Text: as §1, §2

C-reactive protein (CRP) = molecular target: B4; assay: SPR steady-state plot of Req against FcγRIIIB concentration (early association phase data); CRP captured via PC-KLH on CM5 chip; dotted vertical line marks the KD estimate, beyond the highest concentration tested (3e-6 M)
Experimental: (§3) Similar methods were used to evaluate binding interactions between CRP and sFcγRs, and details were the same except where stated here. Binding of CRP to Biacore CM5 chips was achieved through capture via PC-KLH (phosphocholine-keyhole limpet hemocyanin conjugate). Briefly, PC-KLH was immobilized onto a CM5 chip through amine coupling onto the chip surface activated with 1-ethyl-3-(3-dimethylaminopropyl)carbodiimide and N-hydroxysuccinimide. A negative control flow cell was prepared using the same amine coupling to immobilize human serum albumin to the same level as the PC-KLH. Binding of CRP to the PC moiety of PC-KLH immobilized on the CM5 chip was achieved by contacting the surface of the CM5 chip with the CRP in 10 mM Hepes, 150 mM NaCl, 0.5 mM CaCl₂, pH 7.4, to achieve the desired amount of bound CRP. We established that binding was specific for the PC moiety in PC-KLH, since no binding to KLH immobilized to the same level was evident when this was attempted on a different flow cell using the same conditions and the same 10 mM Hepes, 150 mM NaCl, 0.5 mM CaCl₂, pH 7.4, as running buffer. Binding of CRP to PC-KLH was stabilized by a very short immobilization using amine coupling. […]

[3] = molecular target: T2, soluble recombinant FcγRI (sFcγRI) (UniProt P12314 16-292); assay: SPR steady-state plot of Req against FcγRI concentration (early association phase data); CRP captured via PC-KLH on CM5 chip; vertical line marks the KD estimate
T2 construct: extracellular domain; also called FcγR1; not shown: C-terminal poly-histidine tail of 6-10 histidines
Experimental: as §3

T1 sequence (P02743 20-223): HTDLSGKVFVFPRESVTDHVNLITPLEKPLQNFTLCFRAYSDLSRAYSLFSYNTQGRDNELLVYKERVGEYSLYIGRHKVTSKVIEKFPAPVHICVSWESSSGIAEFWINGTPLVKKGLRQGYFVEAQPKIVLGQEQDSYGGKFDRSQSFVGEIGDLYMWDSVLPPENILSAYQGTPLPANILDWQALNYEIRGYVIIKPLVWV
T2 sequence (P12314 16-292): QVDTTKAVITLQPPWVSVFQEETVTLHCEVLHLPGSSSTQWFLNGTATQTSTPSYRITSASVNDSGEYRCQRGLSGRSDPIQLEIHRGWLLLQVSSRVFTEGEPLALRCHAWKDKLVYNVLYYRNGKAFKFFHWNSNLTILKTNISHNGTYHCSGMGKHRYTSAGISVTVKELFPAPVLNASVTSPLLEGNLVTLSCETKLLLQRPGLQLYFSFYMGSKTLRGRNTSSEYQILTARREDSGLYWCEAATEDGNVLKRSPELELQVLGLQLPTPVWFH

Kd (serum amyloid P (SAP) [1]): 0.17 nM
B1: soluble recombinant FcγRIIA (H131 variant) (receptor)
chain: QAAPPKAVLKLEPPWINVLQEDSVTLTCQGARSPESDSIQWFHNGNLIPTHTQPSYRFKANNNDSGEYTCQTGQTSLSDPVHLTVLSEWLVLQTPHLEFQEGETIMLRCHSWKDKPLVKVTFFQNGKSQKFSHLDPTFSIPQANHSHSGDYHCTGNIGYTLFSSKPVTITVQVPSMGSSSPMG
notes: also called FcγR2A; not shown: C-terminal poly-histidine tail of 6-10 histidines

binding result (serum amyloid P (SAP) [2]): no binding
B2: soluble recombinant FcγRIIB (receptor, UniProt P31994 43-217, looked up)
chain: TPAAPPKAVLKLEPQWINVLQEDSVTLTCRGTHSPESDSIQWFHNGNLIPTHTQPSYRFKANNNDSGEYTCQTGQTSLSDPVHLTVLSEWLVLQTPHLEFQEGETIVLRCHSWKDKPLVKVTFFQNGKSKKFSRSDPNFSIPQANHSHSGDYHCTGNIGYTLYSSKPVTITVQAP
notes: extracellular domain; not shown: C-terminal poly-histidine tail of 6-10 histidines

Kd (C-reactive protein (CRP)): ~15600 nM
B3: soluble recombinant FcγRIIIB (sFcγRIIIB) (receptor, UniProt O75015 17-200, looked up)
chain: GMRTEDLPKAVVFLEPQWYSVLEKDSVTLKCQGAYSPEDNSTQWFHNENLISSQASSYFIDAATVNDSGEYRCQTNLSTLSDPVQLEVHIGWLLLQAPRWVFKEEDPIHLRCHSWKNTALHKVTYLQNGKDRKYFHHNSDFHIPKATLKDSGSYFCRGLVGSKNVSSETVNITITQGLAVSTIS
notes: as for B2

Binder: B4
Kd [3]: ~1450 nM
